Drawing on publication PMC7952403 (Nature Communications, 2021), this text covers EC50 and IC50 for one molecule.

Assay [1] addresses T1, SARS-CoV-2 RBD-SD1 with murine IgG2a Fc part, produced in High Five cells (SARS-CoV-2, UniProt P0DTC2).
T1 construct: source: High Five insect cells, transient transfection, purified (Protein A)
Put plainly: ELISA. To be noted: both partners purified.

Assay [2] deals with T1, SARS-CoV-2 RBD-SD1 with murine IgG2a Fc …. Nature of the assay: flow cytometry on cells. To be noted: both partners purified.

B1: STE72-4E12 scFv-Fc (scFv, V domains shown)
VH: QVQLVQSGAEVKKPGASVKVSCKASGYTFTSYYMHWVRQAPGQGLEWMGIINPSGGSTSYAQKFQGRVTMTRDTSTSTVYMELSSLRSEDTAVYYCARDLSGGLDYWGQGTLVTVSS
VL: ETTLTQSPATLSVSPGERVTLACRAGQTISSKLAWYRQKPGQAPSLLIYDASTRATGVPARFSGSGSGTEFTLTISSLQSEDFAVYYCQQYSDWPPTFGQGTKVEIK
notes: also called scFv-hFc; source: Expi293F, transient transfection, purified (Protein A)
Consider B1, for which, in assay [1], the EC50 was 1.5 nM. Further, in assay [2], the IC50 amounted to 3 nM.
